Results as given in publication PMC11039405.

Molecular target: T1, AmrZ (Pseudomonas aeruginosa PAO1) (UniProt G3XCY4)
T1 sequence: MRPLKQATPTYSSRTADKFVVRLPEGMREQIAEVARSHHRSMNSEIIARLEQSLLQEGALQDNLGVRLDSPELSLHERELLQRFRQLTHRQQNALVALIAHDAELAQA
Assay: EMSA

For “GTTATCTGCTTTCGGCCAAGAGATTTGGCTCCTTGCATATTATAAGAACCCCAACACTTCCCGTCGTACCTTGAATGCCCCGCCTAGCGGAGAGGCATGAATACGCTCCGTTTTATTGATTTTCAAAGCCATGAGCACGGAGTCGATTTTATAATAATCAGGATTATCCGACGTGCGCTGA (double strand) [exsA promoter]”, the binding was “no binding”.
